The values that follow come from US7132278B2, “PAS kinase” (Board of Regents, The University of Texas System, priority 2001, dated 2006).

The series relates to AMARA peptide. As to the kind of experiment: PASK kinase assay, 32P incorporation into AMARA peptide substrate. Format: biochemical, human. The settings on record: Pre-phosphorylated enzyme; for Vmax: peptide substrate; for Km: peptide substrate 0.06–1 mM. The protocol: Biochemical properties of the Pask enzyme. A recombinant baculovirus was engineered to overexpress human PASK enzyme in cultured insect cells. The enzyme was expressed as a fusion with a His6 tag at its amino terminus such that the recombinant polypeptide could be purified by Ni-affinity chromatography. Routine enzyme preparations were harvested from 0.8 liter of cultured Sf-9 cells. Cells were lysed by dounce homogenization in 50 mM Tris-HCl, pH 8.0, 100 mM NaCl, 0.04% β-mercaptoethanol (“lysis buffer”) and spun at 100,000×G for one hour to remove insoluble debris. Soluble material (˜50 ml) was then applied to a 3 ml bed volume of Ni-affinity resin. Following application and 50× column volume wash, bound material was eluted with storage buffer (50 mM HEPES, pH 7.4, 100 mM NaCl, 1 mM DTT, 1 mM EDTA) supplemented with 250 mM imidazole. Eluted material was sequentially subjected to Mono-Q, anion-exchange chromatography, and eluted with increasing NaCl concentration. Fractions were evaluated by SDS-PAGE to identify PASK enriched fractions, pooled and dialyzed against storage buffer supplemented with 10% glycerol. Typical enzyme preparations yield 0.5 mg of intact PASK enzyme judged to be greater than 95% pure by visual inspection of Coomassie-stained SDS-PAGE gels.
Kinetic data were used to characterize the activities of PASK enzyme samples derived without modification from baculovirus and following pre-phosphorylation in the presence of ATP. Enzyme activity was monitored using a synthetic substrate bearing the sequence NH2-[…]-CO2H (AMARA peptide, SEQ ID NO:9). The serine residue in this peptide is known to be phosphorylated by both AMPK and Snf1 [2], both of which are exceedingly similar in primary amino acid sequence to the catalytic domain of PASK. The three arginine residues located at the carboxyl terminus of the AMARA peptide allow avid binding to phosphocellulose paper, thereby facilitating quantitation of ^32P incorporation catalyzed by PASK from [γ-^32P]ATP. […] Moreover, lambda phosphatase treatment generated an enzyme which had 7-fold lower activity than the unmodified enzyme, and this treatment was fully reversible by allowing the enzyme to autophosphorylate in the presence of ATP.
PASK concentrations (0.5–2 μg/ml) were determined to have linear rates with respect to protein concentration and time. Kinetic constants were determined using peptide substrate concentrations between 0.06–1 mM. The data were fit to a non-linear Michaelis-Menten equation using the GraphPad Prism 2.0 program. Vmax values given are μmol/min/mg. NS indicates an SE less than 0.05.

B1: S1287,89A: PASK mutant, serine residues 1287 and 1289 changed to alanine (protein)
chain: MEDGGLTAFEEDQRCLSQSLPLPVSAEGPAAQTTAEPSRSFSSAHRHLSRRNGLSRLCQSRTALSEDRWSSYCLSSLAAQNICTSKLHCPAAPEHTDPSEPRGSVSCCSLLRGLSSGWSSPLLPAPVCNPNKAIFTVDAKTTEILVANDKACGLLGYSSQDLIGQKLTQFFLRSDSDVVEALSEEHMEADGHAAVVFGTVVDIISRSGEKIPVSVWMKRMRQERRLCCVVVLEPVERVSTWVAFQSDGTVTSCDSLFAHLHGYVSGEDVAGQHITDLIPSVQLPPSGQHIPKNLKIQRSVGRARDGTTFPLSLKLKSQPSSEEATTGEAAPVSGYRASVWVFCTISGLITLLPDGTIHGINHSFALTLFGYGKTELLGKNITFLIPGFYSYMDLAYNSSLQLPDLASCLDVGNESGCGERTLDPWQGQDPAEGGQDPRINVVLAGGHVVPRDEIRKLMESQDIFTGTQTELIAGGQLLSCLSPQPAPGVDNVPEGSLPVHGEQALPKDQQITALGREEPVAIESPGQDLLGESRSEPVDVKPFASCEDSEAPVPAEDGGSDAGMCGLCQKAQLERMGVSGPSGSDLWAGAAVAKPQAKGQLAGGSLLMHCPCYGSEWGLWWRSQDLAPSPSGMAGLSFGTPTLDEPWLGVENDREELQTCLIKEQLSQLSLAGALDVPHAELVPTECQAVTAPVSSCDLGGRDLCGGCTGSSSACYALATDLPGGLEAVEAQEVDVNSFSWNLKELFFSDQTDQTSSNCSCATSELRETPSSLAVGSDPDVGSLQEQGSCVLDDRELLLLTGTCVDLGQGRRFRESCVGHDPTEPLEVCLVSSEHYAASDRESPGHVPSTLDAGPEDTCPSAEEPRLNVQVTSTPVIVMRGAAGLQREIQEGAYSGSCHHRDGLRLSIQFEVRRVELQGPTPLFCCWLVKDLLHSQRDSAARTRLFLASLPGSTHSTAAELTGPSLVEVLRARPWFEEPPKAVELEGLAACEGEYSQKYSTMSPLGSGAFGFVWTAVDKEKNKEVVVKFIKKEKVLEDCWIEDPKLGKVTLEIAILSRVEHANIIKVLDIFENQGFFQLVMEKHGSGLDLFAFIDRHPRLDEPLASYIFRQLVSAVGYLRLKDIIHRDIKDENIVIAEDFTIKLIDFGSAAYLERGKLFYTFCGTIEYCAPEVLMGNPYRGPELEMWSLGVTLYTLVFEENPFCELEETVEAAIHPPYLVSKELMSLVSGLLQPVPERRTTLEKLVTDPWVTQPVNLADYTWEEVCRVNKPESGVLSAASLEMGNRALADVAQAQELCGGPVPGEAPNGQGCLHPGDPRLLTS
modifications: left off: small tags and cut ends
notes: PASK mutant, serine residues 1287 and 1289 changed to alanine
A word on the Vmax: it is the top rate of the reaction or transport when substrate is in excess. In general, Km refers to the concentration of substrate that gives half-maximal velocity. B1: the Vmax was 0.1 µmol/min/mg and the Km was 200 µM.

B2: S1273-1289A: PASK mutant, all five serines simultaneously changed to alanine (protein)
chain: MEDGGLTAFEEDQRCLSQSLPLPVSAEGPAAQTTAEPSRSFSSAHRHLSRRNGLSRLCQSRTALSEDRWSSYCLSSLAAQNICTSKLHCPAAPEHTDPSEPRGSVSCCSLLRGLSSGWSSPLLPAPVCNPNKAIFTVDAKTTEILVANDKACGLLGYSSQDLIGQKLTQFFLRSDSDVVEALSEEHMEADGHAAVVFGTVVDIISRSGEKIPVSVWMKRMRQERRLCCVVVLEPVERVSTWVAFQSDGTVTSCDSLFAHLHGYVSGEDVAGQHITDLIPSVQLPPSGQHIPKNLKIQRSVGRARDGTTFPLSLKLKSQPSSEEATTGEAAPVSGYRASVWVFCTISGLITLLPDGTIHGINHSFALTLFGYGKTELLGKNITFLIPGFYSYMDLAYNSSLQLPDLASCLDVGNESGCGERTLDPWQGQDPAEGGQDPRINVVLAGGHVVPRDEIRKLMESQDIFTGTQTELIAGGQLLSCLSPQPAPGVDNVPEGSLPVHGEQALPKDQQITALGREEPVAIESPGQDLLGESRSEPVDVKPFASCEDSEAPVPAEDGGSDAGMCGLCQKAQLERMGVSGPSGSDLWAGAAVAKPQAKGQLAGGSLLMHCPCYGSEWGLWWRSQDLAPSPSGMAGLSFGTPTLDEPWLGVENDREELQTCLIKEQLSQLSLAGALDVPHAELVPTECQAVTAPVSSCDLGGRDLCGGCTGSSSACYALATDLPGGLEAVEAQEVDVNSFSWNLKELFFSDQTDQTSSNCSCATSELRETPSSLAVGSDPDVGSLQEQGSCVLDDRELLLLTGTCVDLGQGRRFRESCVGHDPTEPLEVCLVSSEHYAASDRESPGHVPSTLDAGPEDTCPSAEEPRLNVQVTSTPVIVMRGAAGLQREIQEGAYSGSCHHRDGLRLSIQFEVRRVELQGPTPLFCCWLVKDLLHSQRDSAARTRLFLASLPGSTHSTAAELTGPSLVEVLRARPWFEEPPKAVELEGLAACEGEYSQKYSTMSPLGSGAFGFVWTAVDKEKNKEVVVKFIKKEKVLEDCWIEDPKLGKVTLEIAILSRVEHANIIKVLDIFENQGFFQLVMEKHGSGLDLFAFIDRHPRLDEPLASYIFRQLVSAVGYLRLKDIIHRDIKDENIVIAEDFTIKLIDFGSAAYLERGKLFYTFCGTIEYCAPEVLMGNPYRGPELEMWSLGVTLYTLVFEENPFCELEETVEAAIHPPYLVSKELMSLVSGLLQPVPERRTTLEKLVTDPWVTQPVNLADYTWEEVCRVNKPEAGVLAAAALEMGNRALADVAQAQELCGGPVPGEAPNGQGCLHPGDPRLLTS
modifications: left off: small tags and cut ends
notes: PASK mutant, all five serines simultaneously changed to alanine
For B2, the Vmax turned out to be 0.1 µmol/min/mg and the Km stood at 200 µM.

B3: S1149A: PASK mutant, serine residue 1149 changed to alanine (protein)
chain: MEDGGLTAFEEDQRCLSQSLPLPVSAEGPAAQTTAEPSRSFSSAHRHLSRRNGLSRLCQSRTALSEDRWSSYCLSSLAAQNICTSKLHCPAAPEHTDPSEPRGSVSCCSLLRGLSSGWSSPLLPAPVCNPNKAIFTVDAKTTEILVANDKACGLLGYSSQDLIGQKLTQFFLRSDSDVVEALSEEHMEADGHAAVVFGTVVDIISRSGEKIPVSVWMKRMRQERRLCCVVVLEPVERVSTWVAFQSDGTVTSCDSLFAHLHGYVSGEDVAGQHITDLIPSVQLPPSGQHIPKNLKIQRSVGRARDGTTFPLSLKLKSQPSSEEATTGEAAPVSGYRASVWVFCTISGLITLLPDGTIHGINHSFALTLFGYGKTELLGKNITFLIPGFYSYMDLAYNSSLQLPDLASCLDVGNESGCGERTLDPWQGQDPAEGGQDPRINVVLAGGHVVPRDEIRKLMESQDIFTGTQTELIAGGQLLSCLSPQPAPGVDNVPEGSLPVHGEQALPKDQQITALGREEPVAIESPGQDLLGESRSEPVDVKPFASCEDSEAPVPAEDGGSDAGMCGLCQKAQLERMGVSGPSGSDLWAGAAVAKPQAKGQLAGGSLLMHCPCYGSEWGLWWRSQDLAPSPSGMAGLSFGTPTLDEPWLGVENDREELQTCLIKEQLSQLSLAGALDVPHAELVPTECQAVTAPVSSCDLGGRDLCGGCTGSSSACYALATDLPGGLEAVEAQEVDVNSFSWNLKELFFSDQTDQTSSNCSCATSELRETPSSLAVGSDPDVGSLQEQGSCVLDDRELLLLTGTCVDLGQGRRFRESCVGHDPTEPLEVCLVSSEHYAASDRESPGHVPSTLDAGPEDTCPSAEEPRLNVQVTSTPVIVMRGAAGLQREIQEGAYSGSCHHRDGLRLSIQFEVRRVELQGPTPLFCCWLVKDLLHSQRDSAARTRLFLASLPGSTHSTAAELTGPSLVEVLRARPWFEEPPKAVELEGLAACEGEYSQKYSTMSPLGSGAFGFVWTAVDKEKNKEVVVKFIKKEKVLEDCWIEDPKLGKVTLEIAILSRVEHANIIKVLDIFENQGFFQLVMEKHGSGLDLFAFIDRHPRLDEPLASYIFRQLVSAVGYLRLKDIIHRDIKDENIVIAEDFTIKLIDFGAAAYLERGKLFYTFCGTIEYCAPEVLMGNPYRGPELEMWSLGVTLYTLVFEENPFCELEETVEAAIHPPYLVSKELMSLVSGLLQPVPERRTTLEKLVTDPWVTQPVNLADYTWEEVCRVNKPESGVLSAASLEMGNRSLSDVAQAQELCGGPVPGEAPNGQGCLHPGDPRLLTS
modifications: left off: small tags and cut ends
notes: PASK mutant, serine residue 1149 changed to alanine
In the case of B3, the Vmax was found to be 0.1 µmol/min/mg and the Km stood at 600 µM.
